Here are results for 1 substance from patent publication CN1934266A.

Test in all cases: ELISA, growth factor coated at 10 μg/ml, antibody at 10 μg/ml, mean of duplicates
(An ELISA detects its analyte on a solid surface through an enzyme-linked reagent.)

Assay [1] deals with 重组人GDF-11(Peprotech公司，目录号120-11) (human) (UniProt O95390).
Assay [2] addresses TGF-a (R&D Systems 239-A) (UniProt P01135).
In assay [3] the target is BMP-2 (R&D Systems 355-BEC/CF) (UniProt P12643).
Assay [4] addresses TGF-b2 (Peprotech 100-35) (UniProt P61812).
For assay [5], the target named is BMP-6 (R&D Systems 507-BP) (UniProt P22004).
Assay [6] deals with IGF-1 (R&D Systems 291-G1) (UniProt P05019).
Assay [7] deals with 激活蛋白B (R&D Systems 659-AB) (UniProt P09529).
Assay [8] has as its target 激活蛋白A (R&D Systems 338-AC) (UniProt P08476).
The target of assay [9] is BMP-5 (R&D Systems 615-BM) (UniProt P22003).
In assay [10] the target is TGF-b1 (Peprotech 100-21R) (UniProt P01137).
The target in assay [11] is 重组小鼠肌肉生长抑素(R&D systems，目录号788-G8/CF) (mouse) (UniProt O08689).
Assay [12] deals with BMP-7 (R&D Systems 354-BP) (UniProt P18075).
UniProt P18075, sequence (P18075 293-431 limits assumed): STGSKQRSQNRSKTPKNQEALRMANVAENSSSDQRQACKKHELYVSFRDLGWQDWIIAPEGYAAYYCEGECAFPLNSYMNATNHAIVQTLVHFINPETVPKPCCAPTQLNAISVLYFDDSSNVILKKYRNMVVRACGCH

UniProt P22004, sequence (P22004 382-513 limits assumed): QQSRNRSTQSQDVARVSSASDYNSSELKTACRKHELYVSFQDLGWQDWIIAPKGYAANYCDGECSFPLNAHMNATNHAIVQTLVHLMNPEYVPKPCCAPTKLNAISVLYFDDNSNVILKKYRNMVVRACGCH
UniProt P61812, sequence (P61812 303-414 limits assumed): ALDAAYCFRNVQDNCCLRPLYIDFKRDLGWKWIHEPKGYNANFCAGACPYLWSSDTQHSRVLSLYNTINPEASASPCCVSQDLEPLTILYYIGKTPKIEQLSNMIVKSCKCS
UniProt P12643, sequence (P12643 283-396 limits assumed): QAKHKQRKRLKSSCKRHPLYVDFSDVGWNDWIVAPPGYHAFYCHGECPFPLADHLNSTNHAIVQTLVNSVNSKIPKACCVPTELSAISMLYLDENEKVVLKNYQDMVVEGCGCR
UniProt O95390, sequence (O95390 299-407 limits assumed): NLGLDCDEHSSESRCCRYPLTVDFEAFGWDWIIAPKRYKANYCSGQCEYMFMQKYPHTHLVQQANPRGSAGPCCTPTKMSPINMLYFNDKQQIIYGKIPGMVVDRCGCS
UniProt P01137, sequence (P01137 279-390 limits assumed): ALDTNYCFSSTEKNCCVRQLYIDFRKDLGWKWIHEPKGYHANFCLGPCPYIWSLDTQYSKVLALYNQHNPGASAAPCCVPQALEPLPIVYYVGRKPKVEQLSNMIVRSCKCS
UniProt P05019, sequence (P05019 49-118 limits assumed): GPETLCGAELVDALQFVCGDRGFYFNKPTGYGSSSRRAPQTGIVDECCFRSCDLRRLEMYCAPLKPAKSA
UniProt P08476, sequence (P08476 311-426 limits assumed): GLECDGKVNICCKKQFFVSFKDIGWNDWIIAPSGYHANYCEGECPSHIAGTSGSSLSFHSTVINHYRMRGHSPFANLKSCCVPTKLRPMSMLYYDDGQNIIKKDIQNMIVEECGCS
UniProt P09529, sequence (P09529 293-407 limits assumed): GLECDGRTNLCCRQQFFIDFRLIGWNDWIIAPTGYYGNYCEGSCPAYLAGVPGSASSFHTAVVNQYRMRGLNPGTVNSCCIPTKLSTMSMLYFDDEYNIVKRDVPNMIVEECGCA
UniProt P01135, sequence (P01135 40-89 limits assumed): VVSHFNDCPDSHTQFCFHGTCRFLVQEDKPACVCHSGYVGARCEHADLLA
UniProt O08689, sequence (O08689 268-376): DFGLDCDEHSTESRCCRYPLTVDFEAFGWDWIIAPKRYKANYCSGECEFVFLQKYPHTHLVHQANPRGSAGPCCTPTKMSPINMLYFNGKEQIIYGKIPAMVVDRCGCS
UniProt P22003, sequence (P22003 317-454 limits assumed): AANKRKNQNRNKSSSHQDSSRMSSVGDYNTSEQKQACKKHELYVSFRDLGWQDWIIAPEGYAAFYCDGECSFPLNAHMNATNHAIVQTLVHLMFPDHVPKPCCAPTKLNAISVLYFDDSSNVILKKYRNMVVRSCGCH

For “多克隆抗肌肉生长抑素抗体(R&D Systems，目录号AF788) (antibody)”, the 平均吸光度 (OD 490 nm) came out at 2.62 OD 490 nm in [1]; 0.0445 OD 490 nm in [2]; 0.0525 OD 490 nm in [3]; 0.0525 OD 490 nm in assay [4]; 0.0745 OD 490 nm in [5]; 0.045 OD 490 nm in assay [6]. Also, the 平均吸光度 (OD 490 nm) in assay [7] was 0.0485 OD 490 nm; in assay [8], 0.049 OD 490 nm; in assay [9], 0.038 OD 490 nm; in [10], 0.0425 OD 490 nm; in assay [11] it was 2.94 OD 490 nm; in [12] it was 0.042 OD 490 nm.
